Our source for the EC16 (µg/ml), activation of Ran GTPase and Stimulation (times) of GTPase activity values is patent US6406886.

The target of one data set is Ran. Put plainly: cell-based or functional assay.
For data set [1], the target named is human Ha-Ras (1st to 189th residues) (UniProt P01112).
For data set [2], the target named is human Rap1A (Glu63) (1st to 184th residues) (UniProt P62834).
For data set [3], the target named is human RhoA (1st to 193 residues) GST fusion protein (UniProt P61586).
Sequence of human RhoA (1st to 193 residues) GST fusion protein (P61586 whole entry, the tested form may be a part): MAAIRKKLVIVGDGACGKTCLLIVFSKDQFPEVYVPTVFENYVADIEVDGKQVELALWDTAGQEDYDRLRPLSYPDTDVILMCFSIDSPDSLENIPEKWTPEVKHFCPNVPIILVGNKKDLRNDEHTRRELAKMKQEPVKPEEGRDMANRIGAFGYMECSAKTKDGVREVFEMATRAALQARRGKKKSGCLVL
In data set [4] the target is yeast Rsr1 (1st to 272nd residues) (UniProt P13856).
Sequence of yeast Rsr1 (1st to 272nd residues) (P13856 whole entry): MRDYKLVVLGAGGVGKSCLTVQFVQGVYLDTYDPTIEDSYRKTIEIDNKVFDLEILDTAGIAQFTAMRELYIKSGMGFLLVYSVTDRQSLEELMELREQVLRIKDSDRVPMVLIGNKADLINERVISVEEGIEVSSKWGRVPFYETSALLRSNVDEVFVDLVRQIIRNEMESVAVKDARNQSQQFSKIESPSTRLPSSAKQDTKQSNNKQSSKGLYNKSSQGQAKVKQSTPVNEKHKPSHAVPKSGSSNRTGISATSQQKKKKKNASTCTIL

Sequence of fusion protein of human GAP3 (75th to 663rd amino acid residues) and GST (chain, as listed by the source): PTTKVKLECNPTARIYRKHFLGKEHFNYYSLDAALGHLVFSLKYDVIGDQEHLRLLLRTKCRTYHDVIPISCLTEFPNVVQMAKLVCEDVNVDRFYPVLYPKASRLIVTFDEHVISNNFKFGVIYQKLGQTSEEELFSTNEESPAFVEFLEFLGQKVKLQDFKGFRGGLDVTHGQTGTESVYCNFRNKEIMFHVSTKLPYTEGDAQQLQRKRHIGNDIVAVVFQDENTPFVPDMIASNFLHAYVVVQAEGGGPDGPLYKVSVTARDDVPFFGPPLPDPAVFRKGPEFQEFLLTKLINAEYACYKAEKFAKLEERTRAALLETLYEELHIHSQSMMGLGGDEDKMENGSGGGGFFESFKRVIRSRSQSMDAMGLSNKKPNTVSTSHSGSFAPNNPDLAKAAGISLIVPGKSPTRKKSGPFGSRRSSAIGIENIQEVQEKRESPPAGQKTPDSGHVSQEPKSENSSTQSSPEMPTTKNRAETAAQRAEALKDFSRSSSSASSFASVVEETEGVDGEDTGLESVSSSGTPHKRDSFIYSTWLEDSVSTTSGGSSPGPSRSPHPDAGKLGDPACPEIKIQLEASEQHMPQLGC
Sequence of human Rap1A (Glu63) (1st to 184th residues) (P62834 whole entry, looked up, the tested form may be a part): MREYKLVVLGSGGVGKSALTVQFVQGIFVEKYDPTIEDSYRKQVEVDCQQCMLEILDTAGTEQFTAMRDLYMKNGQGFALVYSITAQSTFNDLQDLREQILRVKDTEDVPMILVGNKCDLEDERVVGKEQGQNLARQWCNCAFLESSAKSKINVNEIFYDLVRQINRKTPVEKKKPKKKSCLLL
Sequence of human Ha-Ras (1st to 189th residues) (P01112 whole entry, looked up): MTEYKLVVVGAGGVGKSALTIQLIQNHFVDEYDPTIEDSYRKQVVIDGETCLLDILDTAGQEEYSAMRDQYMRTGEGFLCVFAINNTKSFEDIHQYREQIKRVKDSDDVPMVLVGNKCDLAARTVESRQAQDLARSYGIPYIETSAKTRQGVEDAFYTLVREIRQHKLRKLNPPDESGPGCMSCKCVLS

The substance p190C(Rho GAP) (enzyme) showed an EC16 (µg/ml), activation of Ran GTPase with Ran of 150 µg/mL.
On to “fusion protein of human GAP3 (75th to 663rd amino acid residues) and GST”, for which the Stimulation (times) of GTPase activity came to 0 times in data set [1], 10 times in data set [2], 0 times in data set [3] and 7 times in data set [4].
“fusion protein of human GAP3 (75th to 663rd amino acid residues) and GST (from UniProt P47736 75-663) (enzyme)” yielded an EC16 (µg/ml), activation of Ran GTPase in the data set with Ran of 130 µg/mL.
On the same count and under the same terms, then NF1-GDR(Ras GAP) (enzyme), with 300 µg/mL.
